# How the values were obtained:
# [1] = Permeability characterization: penetration into blood vessel slices, laser confocal microscope; format: in vitro ADME; conditions: 1 mg/mL dripped onto inner surface of 2*2 cm blood vessel slice
# Description: 1 mg/mL of the photosensitive material with blood vessel repair function prepared in Example 1 was dripped onto the inner surface of the blood vessel, and the residual liquid on the inner surface of the blood vessel was wiped dry after a certain period of time, and the penetration depth in the blood vessel was measured using a laser confocal microscope.
# Control group: a blood vessel was cut into 2*2 cm slices, with the inner surface facing upward and kept moist with 0.9% (by mass) physiological saline. 1 mg/mL of the third product in Example 1 was dripped onto the inner surface of the blood vessel, and the residual liquid on the inner surface of the blood vessel was wiped dry after a certain period of time, and the penetration depth in the blood vessel was measured using a laser confocal microscope.
# [2] = tested on: porcine peripheral blood vessels; assay: Lumen gain and protein cross-linking after angioplasty with riboflavin balloon and photo-activation
# Description: A porcine peripheral blood vessel was immersed in PBS buffer. Balloons (with a pore size of 50 μm and a surface porosity of 50%) was introduced into the blood vessel. The fluid prepared in Preparation Example 1 was infused to expand the balloons from the compressed state to the inflated state at a pressure of 6 atm. While maintaining the pressure of the balloons, a light source device activated the light-guiding element to emit 450 nm light, with a photocuring duration of 5 minutes.
# A porcine peripheral blood vessel was immersed in PBS buffer. Balloons prepared in Preparation Example 6 was pushed into the blood vessel. The compressed balloons were expanded by injecting fluid at a pressure of 6 atm. Then, while maintaining the pressure of the balloons, the light-guiding element emitted light with a wavelength of 450 nm, with a photocuring duration of 5 minutes.
# A porcine peripheral blood vessel was immersed in PBS buffer. Balloons prepared in Preparation Example 9 was pushed into the blood vessel. The compressed balloons were expanded by injecting fluid at a pressure of 6 atm. Then, while maintaining the pressure of the balloons, the light-guiding element emitted light with a wavelength of 450 nm, with a photocuring duration of 5 minutes.
# A porcine peripheral blood vessel was immersed in PBS buffer. Balloons without riboflavin were pushed into the blood vessel. […]
compound,measurement,setting,value
N=C(N)NCCCC(N)C(=O)NCCCCC(NC(=O)C(N)CCCNC(=N)N)C(=O)NCCCCC(NC(=O)C(CCCCNC(=O)C(N)CCCNC(=N)N)NC(=O)C(N)CCCNC(=N)N)C(=O)NCCNC(=O)C(CCCCNC(=O)C(CCCCNc1ccc2c3c(cccc13)C(=O)N(CCOCCOCCOCCN1C(=O)c3cccc4c(NCCOCCOCCOCCN)ccc(c34)C1=O)C2=O)Nc1ccc2c3c(cccc13)C(=O)N(CCOCCOCCOCCN1C(=O)c3cccc4c(NCCOCCOCCOCCN)ccc(c34)C1=O)C2=O)NC(=O)C(CCCCNc1ccc2c3c(cccc13)C(=O)N(CCOCCOCCOCCN1C(=O)c3cccc4c(NCCOCCOCCOCCN)ccc(c34)C1=O)C2=O)Nc1ccc2c3c(cccc13)C(=O)N(CCOCCOCCOCCN1C(=O)c3cccc4c(NCCOCCOCCOCCN)ccc(c34)C1=O)C2=O (centres unmarked) [Experimental group],The time when the drug is observed in the adventitia of blood vessels,[1],18 s
Cc1cc2nc3c(=O)[nH]c(=O)nc-3n(C[C@H](O)[C@H](O)[C@H](O)CO)c2cc1C [riboflavin],protein cross-linking under photo-activation / medial fiber network of treated arteries,[2],denser medial fiber network

# Reference: patent US20250195212A1, “METHOD FOR GENERATING IN-SITU VASCULAR STENT AND PHOTOCURABLE DRUG-LOADED BALLOON CATHETER FOR IMPLEMENTING THE METHOD” (HANGZHOU MATRIX MEDICAL TECHNOLOGY CO., LTD., priority 2022, published 2025)
